# In patent publication US20050282743A1, “Molecular interactions in cells” (Arbor Vita Corporation, priority 2001, published 2005):
# B1: DOCK2 (peptide)
# peptide: LASKSAEEGKQIPDSLSTDL
# modifications: not checked
# B2: Nectin 2 (peptide)
# peptide: SSPDSSYQGKGFVMSRAMYV
# modifications: not checked
# B3: ephrin A2 (peptide)
# peptide: RIAYSLLGLKDQVNTVGIPI
# modifications: not checked
# B4: Glycophorin C (peptide)
# peptide: QGDPALQDAGDSSRKEYFI
# modifications: not checked
# B5: JAM (junctional adhesion molecule) (peptide)
# peptide: YSQPSARSEGEFKQTSSFLV
# modifications: not checked
# B6: GABA transporter 3 (peptide)
# peptide: DAKLKSDGTIAAITEKETHF
# modifications: not checked
# Tests used:
# Assay in all cases: G' assay
# [1] = biological target: T1, GST-LIM Mystique PDZ domain 1 (Homo sapiens (Human)), Q96JY6
# T1 chain: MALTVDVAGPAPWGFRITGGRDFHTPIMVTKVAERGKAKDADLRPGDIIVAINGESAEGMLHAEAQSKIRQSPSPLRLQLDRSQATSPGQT
# [2] = biological target: T2, GST-LIM-RIL PDZ domain 1 (Homo sapiens (Human)), P50479
# T2 chain: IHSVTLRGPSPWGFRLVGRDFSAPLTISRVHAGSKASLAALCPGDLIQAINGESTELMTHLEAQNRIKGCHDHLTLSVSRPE
# [3] = biological target: T3, GST-HEMBA 1003117 PDZ domain 1 (Homo sapiens (Human)), Q96JH8
# T3 chain: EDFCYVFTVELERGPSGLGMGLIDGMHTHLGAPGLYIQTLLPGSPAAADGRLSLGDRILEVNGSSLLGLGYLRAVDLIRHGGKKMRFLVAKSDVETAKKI
# [4] = biological target: T4, GST-KIAA0382 PDZ domain 1 (Canis lupus familiaris (Dog) (Canis familiaris)), A0A8I3
# T4 chain: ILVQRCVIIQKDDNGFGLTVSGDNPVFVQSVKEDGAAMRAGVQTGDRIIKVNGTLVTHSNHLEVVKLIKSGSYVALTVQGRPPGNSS
# [5] = biological target: T5, GST-FLJ 10324 PDZ domain 1 [GST: P08515]
# T5 chain: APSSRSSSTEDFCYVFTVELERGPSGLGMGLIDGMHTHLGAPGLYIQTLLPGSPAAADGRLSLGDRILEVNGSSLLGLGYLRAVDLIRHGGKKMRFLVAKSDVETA
# [6] = biological target: T6, GST-EZRIN Binding Protein 50 PDZ domain 1 (Homo sapiens (Human)), O14745
# T6 chain: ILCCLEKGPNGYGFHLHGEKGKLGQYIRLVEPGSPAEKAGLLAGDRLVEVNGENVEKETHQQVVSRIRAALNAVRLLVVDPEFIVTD
# [7] = biological target: T7, GST-Shank 3 PDZ domain 1 (human (hypothetical, computer cloned)), Q9BYB0
# T7 chain: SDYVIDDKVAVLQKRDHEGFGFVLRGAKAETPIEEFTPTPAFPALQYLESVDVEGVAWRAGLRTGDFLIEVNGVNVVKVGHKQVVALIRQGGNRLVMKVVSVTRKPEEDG
# [8] = biological target: GST-KIAA807 [GST: P08515]
# [9] = biological target: T8, GST-INADL PDZ domain 3 (Homo sapiens (Human)), Q8NI35
# T8 chain: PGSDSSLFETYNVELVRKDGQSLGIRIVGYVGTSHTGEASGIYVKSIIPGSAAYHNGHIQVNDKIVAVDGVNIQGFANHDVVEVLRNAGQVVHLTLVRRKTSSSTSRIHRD
# [10] = biological target: GST-Atrophin-1 Interacting Protein PDZ domain 5 (Rattus norvegicus (Rat)), O88382
# [11] = biological target: GST-KIAA1634 PDZ domain 5 (Homo sapiens (Human)), Q5TCQ9
# [12] = biological target: T9, GST-APXL-1 PDZ domain 1 (Homo sapiens (Human)), Q13796
# T9 chain: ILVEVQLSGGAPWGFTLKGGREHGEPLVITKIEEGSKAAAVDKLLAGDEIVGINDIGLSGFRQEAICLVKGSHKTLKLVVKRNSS
# [13] = biological target: T10, GST-KIAA0807(S) PDZ domain 1 (Homo sapiens (Human)), Q6P0Q8
# T10 chain: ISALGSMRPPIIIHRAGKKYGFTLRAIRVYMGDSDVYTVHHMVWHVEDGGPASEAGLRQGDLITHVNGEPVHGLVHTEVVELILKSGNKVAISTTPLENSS
# [14] = biological target: GST-KIAA0147 PDZ domain 1 (Homo sapiens (Human)), Q14160
# [15] = biological target: T11, GST-Shank 1 PDZ domain 1 (Homo sapiens (Human)), Q9UPX8
# T11 chain: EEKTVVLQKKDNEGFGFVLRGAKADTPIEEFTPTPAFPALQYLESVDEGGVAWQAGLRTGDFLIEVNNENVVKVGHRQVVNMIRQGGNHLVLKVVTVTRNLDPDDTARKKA
# [16] = biological target: T12, GST-EZRIN Binding Protein 50 PDZ domain 2 (Homo sapiens (Human)), O14745
# T12 chain: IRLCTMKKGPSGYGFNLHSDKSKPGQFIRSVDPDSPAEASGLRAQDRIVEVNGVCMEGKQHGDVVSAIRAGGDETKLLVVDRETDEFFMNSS
# [17] = biological target: GST-BAI-1 Associated Protein PDZ domain 6 (Homo sapiens (Human)), Q96QZ7
# [18] = biological target: GST-KIAA1634 PDZ domain 1 (Homo sapiens (Human)), Q5TCQ9
# [19] = biological target: T13, GST-MINT1 PDZ domains 1, 2, Q02410
# T13 chain: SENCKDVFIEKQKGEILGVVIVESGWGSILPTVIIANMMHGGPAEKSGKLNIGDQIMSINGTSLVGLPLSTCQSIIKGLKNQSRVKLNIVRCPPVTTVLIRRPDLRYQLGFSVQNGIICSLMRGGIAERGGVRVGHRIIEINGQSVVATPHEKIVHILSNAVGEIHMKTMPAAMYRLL
# [20] = biological target: T14, GST-AF6 PDZ domain 1 (Homo sapiens (Human)), P55196
# T14 chain: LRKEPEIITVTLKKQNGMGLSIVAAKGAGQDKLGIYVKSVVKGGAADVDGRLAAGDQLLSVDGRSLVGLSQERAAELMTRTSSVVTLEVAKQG
# [21] = biological target: T15, GST-KIAA1719 PDZ domain 6 (Homo sapiens (Human)), Q9C0E4
# T15 chain: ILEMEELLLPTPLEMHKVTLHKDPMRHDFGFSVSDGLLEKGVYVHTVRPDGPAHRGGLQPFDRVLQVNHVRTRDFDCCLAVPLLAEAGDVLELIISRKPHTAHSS
# [22] = biological target: T16, GST-MINT1 PDZ domain 2 (Mus musculus (Mouse)), B2RUJ5
# T16 chain: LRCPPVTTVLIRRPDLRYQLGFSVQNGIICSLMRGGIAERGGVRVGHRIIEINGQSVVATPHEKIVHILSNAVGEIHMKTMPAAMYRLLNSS
# [23] = biological target: T17, GST-MUPP1 PDZ domain 11 (Homo sapiens (Human)), O75970
# T17 chain: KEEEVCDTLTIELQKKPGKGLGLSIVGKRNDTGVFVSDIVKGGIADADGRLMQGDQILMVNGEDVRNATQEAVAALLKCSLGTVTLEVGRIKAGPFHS
# [24] = biological target: GST-PAR3 PDZ domain 3 (Homo sapiens (Human)), Q8TEW0
# [25] = biological target: T18, GST-PTPL1 PDZ domain 4 (Homo sapiens (Human)), Q12923
# T18 chain: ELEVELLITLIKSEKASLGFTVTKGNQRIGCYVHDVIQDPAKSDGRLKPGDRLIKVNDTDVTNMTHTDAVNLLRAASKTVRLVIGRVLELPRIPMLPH
# [26] = biological target: T19, GST-Syntrophin 1 alpha PDZ domain 1 (Homo sapiens (Human)), Q13424
# T19 chain: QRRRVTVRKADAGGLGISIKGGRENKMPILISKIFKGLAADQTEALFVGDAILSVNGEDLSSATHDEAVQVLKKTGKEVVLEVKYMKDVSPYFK
# [27] = biological target: T20, GST-PDZK1 PDZ domains 2, 3, 4, Q5T2W1
# T20 chain: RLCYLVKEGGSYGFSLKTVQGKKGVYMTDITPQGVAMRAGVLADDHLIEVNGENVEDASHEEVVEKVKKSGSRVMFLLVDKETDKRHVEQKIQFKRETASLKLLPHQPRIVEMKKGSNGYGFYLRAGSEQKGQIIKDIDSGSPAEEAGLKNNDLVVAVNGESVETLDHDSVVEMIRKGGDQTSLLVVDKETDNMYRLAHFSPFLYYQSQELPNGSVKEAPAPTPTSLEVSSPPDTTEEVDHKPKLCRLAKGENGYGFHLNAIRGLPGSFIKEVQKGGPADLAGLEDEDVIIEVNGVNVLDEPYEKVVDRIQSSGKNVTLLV
# Note: key of the grades not given here.
# Chain of GST-KIAA807 [GST: P08515] (P08515 whole entry, the tested form may be a part): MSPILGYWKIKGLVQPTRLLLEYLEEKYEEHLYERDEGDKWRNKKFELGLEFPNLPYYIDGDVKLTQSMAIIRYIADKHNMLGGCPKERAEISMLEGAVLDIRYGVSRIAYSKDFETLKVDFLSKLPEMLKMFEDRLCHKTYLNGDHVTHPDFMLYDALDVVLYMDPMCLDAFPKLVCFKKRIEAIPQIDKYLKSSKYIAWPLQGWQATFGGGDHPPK
# Chain of GST-KIAA1634 PDZ domain 1 (Homo sapiens (Human)), Q5TCQ9 (Q5TCQ9 401-502): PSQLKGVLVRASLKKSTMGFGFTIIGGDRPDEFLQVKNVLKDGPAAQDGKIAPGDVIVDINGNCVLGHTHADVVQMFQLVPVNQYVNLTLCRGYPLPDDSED
# Chain of GST-BAI-1 Associated Protein PDZ domain 6 (Homo sapiens (Human)), Q96QZ7 (Q96QZ7 1143-1233): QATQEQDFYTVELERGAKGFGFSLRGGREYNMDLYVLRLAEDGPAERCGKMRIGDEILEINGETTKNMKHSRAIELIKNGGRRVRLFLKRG
# Chain of GST-PAR3 PDZ domain 3 (Homo sapiens (Human)), Q8TEW0 (Q8TEW0 579-681): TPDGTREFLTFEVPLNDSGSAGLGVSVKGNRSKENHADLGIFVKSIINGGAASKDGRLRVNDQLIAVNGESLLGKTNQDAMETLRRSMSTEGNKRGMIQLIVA
# Chain of GST-KIAA1634 PDZ domain 5 (Homo sapiens (Human)), Q5TCQ9 (Q5TCQ9 other isoform, or with tags, fused parts or gaps): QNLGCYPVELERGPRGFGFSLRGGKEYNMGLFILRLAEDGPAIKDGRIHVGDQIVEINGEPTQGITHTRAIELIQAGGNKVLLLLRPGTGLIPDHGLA
# Chain of GST-KIAA0147 PDZ domain 1 (Homo sapiens (Human)), Q14160 (Q14160 other isoform, or with tags, fused parts or gaps): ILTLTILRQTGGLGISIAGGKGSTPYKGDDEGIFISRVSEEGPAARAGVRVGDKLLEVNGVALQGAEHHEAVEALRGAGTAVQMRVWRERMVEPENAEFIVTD
# Chain of GST-Atrophin-1 Interacting Protein PDZ domain 5 (Rattus norvegicus (Rat)), O88382 (O88382 1128-1225): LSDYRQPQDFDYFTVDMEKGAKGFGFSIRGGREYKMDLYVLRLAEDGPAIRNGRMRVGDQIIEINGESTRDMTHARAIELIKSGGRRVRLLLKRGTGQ
binder,measurement,setting,value
B1,Classification,[1],1 A450 class
same,Classification,[2],1 A450 class
same,Classification,[3],1 A450 class
same,Classification,[4],1 A450 class
same,Classification,[5],1 A450 class
same,Classification,[6],1 A450 class
same,Classification,[7],1 A450 class
same,Classification,[8],5 A450 class
same,Classification,[9],1 A450 class
same,Classification,[10],1 A450 class
same,Classification,[11],1 A450 class
same,Classification,[12],2 A450 class
same,Classification,[13],4 A450 class
same,Classification,[14],1 A450 class
same,Classification,[15],1 A450 class
same,Classification,[16],2 A450 class
same,Classification,[17],1 A450 class
B2,Classification,[18],1 A450 class
same,Classification,[19],2 A450 class
same,Classification,[20],2 A450 class
B3,Classification,[4],1 A450 class
same,Classification,[21],1 A450 class
same,Classification,[22],1 A450 class
same,Classification,[23],1 A450 class
B4,Classification,[21],1 A450 class
same,Classification,[24],2 A450 class
B5,Classification,[9],1 A450 class
same,Classification,[20],1 A450 class
same,Classification,[25],1 A450 class
B6,Classification,[8],1 A450 class
same,Classification,[12],1 A450 class
same,Classification,[26],1 A450 class
same,Classification,[13],1 A450 class
same,Classification,[27],1 A450 class
same,Classification,[15],1 A450 class
